Results: paper PMC6265470, “Structural, functional and biological insights into the role of Mycobacterium tuberculosis VapBC11 toxin–antitoxin system: targeting a tRNase to tackle mycobacterial adaptation” (Nucleic Acids Research, 2018)

Assays:
[1] = biological target: VapC11 as co-expressed and co-purified with VapB11 in the VapBC11 complex (Mycobacterium tuberculosis) (UniProt P9WFA4); experiment: […] (pH 8.0), 150 mM NaCl, […]
[2] = system: VapC11 D5A (Mycobacterium tuberculosis); experiment: BLI; details: BLI: 20 mM HEPES pH 7.5, 150 mM NaCl, 25 C

In the case of “VapB11 (residues 6-72) as co-expressed and co-purified with VapC11 in the VapBC11 complex (from UniProt P9WLU2 6-72) (domain or fragment)”, the percent of the population as heterooctamer [1] is reported as 80%, the stoichiometry N (VapB11 per VapC11 (2:4)) [1] is reported as 0.5 and the stoichiometry N (VapB11 per VapC11 (4:4)) [1] is reported as 1.

Work on tRNA-LeuCAG (leuT) yielded a Kd [2] of 0.5 nM.
